From US20160102316A1, “STRESS TOLERANT PLANTS” (CONSEJO SUPERIOR DE INVESTIGACIONES CIENTIFICAS(CSIC), priority 2013, published 2016)

T1: DET1 (Arabidopsis, UniProt P48732 1-543)
T1 construct: Endogenous protein in the TAP; also called DEETIOLATED 1
T1 sequence (looked up): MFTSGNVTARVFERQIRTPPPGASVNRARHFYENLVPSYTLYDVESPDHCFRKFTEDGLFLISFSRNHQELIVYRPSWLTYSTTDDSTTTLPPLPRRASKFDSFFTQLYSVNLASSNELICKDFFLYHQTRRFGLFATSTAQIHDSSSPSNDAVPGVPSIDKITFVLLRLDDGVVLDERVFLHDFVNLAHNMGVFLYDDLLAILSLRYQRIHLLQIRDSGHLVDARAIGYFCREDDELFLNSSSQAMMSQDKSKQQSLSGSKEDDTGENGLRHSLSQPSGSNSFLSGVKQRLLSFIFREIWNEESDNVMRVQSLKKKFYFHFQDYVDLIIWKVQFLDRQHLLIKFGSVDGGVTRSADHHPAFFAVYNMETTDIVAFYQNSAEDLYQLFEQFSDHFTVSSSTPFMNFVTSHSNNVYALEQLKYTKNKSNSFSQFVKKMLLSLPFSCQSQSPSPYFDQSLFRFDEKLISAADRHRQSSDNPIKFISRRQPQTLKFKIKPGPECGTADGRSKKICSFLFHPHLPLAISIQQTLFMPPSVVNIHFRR

T2: DDB1a (Arabidopsis, UniProt Q9M0V3 1-1088)
T2 construct: Endogenous protein in the TAP from Arabidopsis cell cultures; also called DDB1 proteins
T2 sequence (looked up): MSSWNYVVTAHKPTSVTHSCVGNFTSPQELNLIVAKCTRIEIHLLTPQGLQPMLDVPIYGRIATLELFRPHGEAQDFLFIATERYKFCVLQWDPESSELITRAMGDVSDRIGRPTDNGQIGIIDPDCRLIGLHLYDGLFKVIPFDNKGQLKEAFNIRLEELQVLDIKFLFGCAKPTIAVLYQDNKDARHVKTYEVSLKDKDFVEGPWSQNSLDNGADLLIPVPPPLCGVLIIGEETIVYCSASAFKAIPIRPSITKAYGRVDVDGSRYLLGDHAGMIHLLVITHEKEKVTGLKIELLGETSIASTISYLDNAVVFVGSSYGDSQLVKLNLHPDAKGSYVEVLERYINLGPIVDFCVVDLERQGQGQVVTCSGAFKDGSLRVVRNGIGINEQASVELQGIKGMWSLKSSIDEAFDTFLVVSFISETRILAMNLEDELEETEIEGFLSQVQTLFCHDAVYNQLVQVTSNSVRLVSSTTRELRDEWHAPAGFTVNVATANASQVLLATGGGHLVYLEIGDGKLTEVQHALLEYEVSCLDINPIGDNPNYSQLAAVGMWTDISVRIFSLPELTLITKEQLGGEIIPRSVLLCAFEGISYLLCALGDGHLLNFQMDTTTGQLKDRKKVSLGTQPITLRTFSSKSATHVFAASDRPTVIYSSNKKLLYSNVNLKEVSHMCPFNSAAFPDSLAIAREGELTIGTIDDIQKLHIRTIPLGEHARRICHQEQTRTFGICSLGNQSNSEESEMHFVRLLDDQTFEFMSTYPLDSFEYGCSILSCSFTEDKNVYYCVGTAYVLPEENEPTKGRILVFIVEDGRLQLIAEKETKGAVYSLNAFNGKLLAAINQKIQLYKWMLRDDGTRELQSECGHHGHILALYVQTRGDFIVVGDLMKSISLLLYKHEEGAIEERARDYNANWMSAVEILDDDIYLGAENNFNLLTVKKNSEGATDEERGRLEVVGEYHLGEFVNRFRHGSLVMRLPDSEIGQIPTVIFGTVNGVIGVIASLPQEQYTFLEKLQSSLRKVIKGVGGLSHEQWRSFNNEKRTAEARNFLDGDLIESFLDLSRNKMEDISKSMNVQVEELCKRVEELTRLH

T3: DDB1b (Arabidopsis, UniProt O49552 1-1088)
T3 construct: Endogenous protein in the TAP; also called DDB1 proteins
T3 sequence (looked up): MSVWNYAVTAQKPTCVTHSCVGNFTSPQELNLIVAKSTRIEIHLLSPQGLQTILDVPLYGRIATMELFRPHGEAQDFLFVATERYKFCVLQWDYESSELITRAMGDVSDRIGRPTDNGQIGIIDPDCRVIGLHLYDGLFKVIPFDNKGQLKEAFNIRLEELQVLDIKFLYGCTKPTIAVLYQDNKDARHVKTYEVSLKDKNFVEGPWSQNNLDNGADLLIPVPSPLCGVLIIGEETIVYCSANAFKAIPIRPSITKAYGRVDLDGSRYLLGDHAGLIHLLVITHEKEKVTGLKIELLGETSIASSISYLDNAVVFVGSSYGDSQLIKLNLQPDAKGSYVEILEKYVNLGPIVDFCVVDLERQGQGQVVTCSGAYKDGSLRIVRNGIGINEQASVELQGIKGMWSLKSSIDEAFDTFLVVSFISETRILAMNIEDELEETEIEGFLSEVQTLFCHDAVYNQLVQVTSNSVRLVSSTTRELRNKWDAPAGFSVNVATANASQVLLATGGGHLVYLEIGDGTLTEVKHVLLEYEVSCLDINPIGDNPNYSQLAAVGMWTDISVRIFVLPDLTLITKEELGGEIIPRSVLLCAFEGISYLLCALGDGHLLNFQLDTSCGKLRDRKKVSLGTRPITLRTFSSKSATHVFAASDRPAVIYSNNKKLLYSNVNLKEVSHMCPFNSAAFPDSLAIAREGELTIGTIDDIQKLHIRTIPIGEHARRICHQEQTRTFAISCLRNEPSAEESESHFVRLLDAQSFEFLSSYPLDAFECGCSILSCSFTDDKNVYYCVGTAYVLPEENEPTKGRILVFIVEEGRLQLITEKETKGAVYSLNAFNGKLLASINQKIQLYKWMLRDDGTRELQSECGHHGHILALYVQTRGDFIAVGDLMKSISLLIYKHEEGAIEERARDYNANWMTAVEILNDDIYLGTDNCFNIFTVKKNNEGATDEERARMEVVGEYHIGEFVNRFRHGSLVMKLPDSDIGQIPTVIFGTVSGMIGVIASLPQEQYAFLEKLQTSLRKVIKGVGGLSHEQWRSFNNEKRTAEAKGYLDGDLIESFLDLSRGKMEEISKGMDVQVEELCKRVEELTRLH

T4: YFPN:PYL8 (Arabidopsis, UniProt Q9FGM1 1-188)
T4 construct: BiFC construct expressed transiently in N. benthamiana leaves; also called PYL8 fusion with the N-portion of YFP; not shown: N-portion of the yellow fluorescent protein (YFP)
T4 sequence (looked up): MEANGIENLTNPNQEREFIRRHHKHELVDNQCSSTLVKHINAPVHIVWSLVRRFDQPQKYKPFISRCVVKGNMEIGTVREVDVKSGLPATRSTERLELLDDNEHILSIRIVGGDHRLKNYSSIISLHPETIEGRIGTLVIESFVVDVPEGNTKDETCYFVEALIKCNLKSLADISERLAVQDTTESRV

B1: PYL6 (receptor, Arabidopsis, UniProt Q8S8E3 1-215, looked up)
chain: MPTSIQFQRSSTAAEAANATVRNYPHHHQKQVQKVSLTRGMADVPEHVELSHTHVVGPSQCFSVVVQDVEAPVSTVWSILSRFEHPQAYKHFVKSCHVVIGDGREVGSVREVRVVSGLPAAFSLERLEIMDDDRHVISFSVVGGDHRLMNYKSVTTVHESEEDSDGKKRTRVVESYVVDVPAGNDKEETCSFADTIVRCNLQSLAKLAENTSKFS
B2: full length PYL8 (receptor, Arabidopsis, UniProt Q9FGM1 1-188, looked up)
chain: T4 sequence (looked up)
notes: Gal4-domain fusion in the yeast two-hybrid assays; also called ABA receptor PYL8
B3: COP10 (other, Arabidopsis, UniProt Q9LJD7 1-182, looked up)
chain: MMTPGGSGRLRPLPTAMYAGYSGTASSWVAKTSVSASGKRIQREMAELNIDPPPDCSAGPKGDNLYHWIATIIGPSGTPYEGGIFFLDIIFPSDYPFKPPKLVFKTRIYHCNVDTAGDLSVNILRDSWSPALTITKVLQAIRSIFLKPEPYSPALPVIARLYLTDREKHDEVAKEWTLRFAK
notes: Endogenous protein in the TAP; also called CONSTITUTIVE PHOTOMORPHOGENIC10
B4: DDA1:YFPC (other)
chain: MASILGDLPSFDPHNFSQHRPSDPSNPSKMVPTTYRPTHNRTLPPPDQVITTEVKNILIRSFYQRAEEKLRPKRPATDHLAAEHVNKHFRAASSSSSTQGL
notes: BiFC construct expressed transiently in N. benthamiana leaves; also called DDA1 fusion with the C-portion of YFP; not shown: C-portion of the yellow fluorescent protein (YFP)
B5: PYL5 (receptor, Arabidopsis, UniProt Q9FLB1 1-203, looked up)
chain: MRSPVQLQHGSDATNGFHTLQPHDQTDGPIKRVCLTRGMHVPEHVAMHHTHDVGPDQCCSSVVQMIHAPPESVWALVRRFDNPKVYKNFIRQCRIVQGDGLHVGDLREVMVVSGLPAVSSTERLEILDEERHVISFSVVGGDHRLKNYRSVTTLHASDDEGTVVVESYIVDVPPGNTEEETLSFVDTIVRCNLQSLARSTNRQ
B6: DDA1 fused to the binding domain of GAL4 (pGBKT7-DDA1) (other)
chain: MKLLSSIEQACDICRLKKLKCSKEKPKCAKCLKNNWECRYSPKTKRSPLTRAHLTEVESRLERLEQLFLLIFPREDLDMILKMDSLQDIKALLTGLFVQDNVNKDAVTDRLASVETDMPLTLRQHRISATSSSEESSNKGQRQLTVSMASILGDLPSFDPHNFSQHRPSDPSNPSKMVPTTYRPTHNRTLPPPDQVITTEVKNILIRSFYQRAEEKLRPKRPATDHLAAEHVNKHFRAASSSSSTQGL
notes: Other vector-encoded residues of pGBKT7 are not described; also called AtDDA1; DET1-, DDB1-Associated 1

Assays:
[1] = molecular target: B6; assay: yeast two-hybrid
Description: (§1) (A) Y187 yeast cells transformed with pGBKT7-DDA1 were used to screen a cDNA library prepared from Arabidopsis seedlings in the pGADT7 vector and transformed into AH109 cells. Positive clones included truncated versions of ABA receptors PYL4 and PYL9. Yeast clones were grown in selective media containing different concentrations of 3AT (ranging 0.5 to 5 […]). Empty pGADT7 vector was used as negative control. (B-C) DDA1 interaction with full length PYL8 (B), PYL4, PYL5, PYL6 or PYL9 (C) was assessed using yeast two hybrid experiments as in (A). Physical association between PYL8 and other components of the CDD complex (DDB1a, DDB1b, DET1 and COP10) was also tested (B).
(§2) The molecular basis of DDA1 activity is unknown. To get insights into its mechanism of action, we searched for proteins that interact with DDA1. With this aim, we conducted a yeast two-hybrid screen using DDA1 as bait. Thus, the full-length coding sequence of DDA1 fused to the binding domain of GAL4 was used to screen a cDNA library prepared from Arabidopsis seedlings. From over 15 million clones screened, 200 were identified as potential DDA1 interactors. Among them, 20 were subsequently confirmed by retransformation into yeast. […] We aimed to determine whether DDA1 interacts with full length PYL4 and PYL9 and with other Arabidopsis PYR/PYL/RCAR family members using yeast two hybrid assays.
(§3) The full length DDA1 cDNA was cloned into the pGBKT7 (Gal4 DNA binding domain, BD; Clontech). […] To confirm protein interactions, plasmids were co-transformed into Saccharomyces cerevisiae AH109 cells, following standard heat-shock protocols (Chini et al., 2007).

DET1 [2] = molecular target: T1, DET1; assay: yeast two-hybrid (FIG. 4B)
Description: as §1
(§4) The full length DDA1 cDNA was cloned into the pGBKT7 (Gal4 DNA binding domain, BD; Clontech). […] To confirm protein interactions, plasmids were co-transformed into Saccharomyces cerevisiae AH109 cells, following standard heat-shock protocols (Chini et al., 2007). Successfully transformed colonies were identified on yeast synthetic drop-out lacking Leu and Trp; these colonies were resuspended in water and transferred to selective media lacking Ade, His, Leu and Trp. Plates without His were supplemented with different concentrations of 3-amino 1,2,4-triazole (3AT; ranging 0.5-10 mM). Yeast cells were incubated at 30° C. during 6 days. Empty vectors were co-transformed as negative controls. To test the DDA1 interaction with specific DDB1a domains, DDB1a truncated versions were generated and cloned into the pGADT7 vector as follows: BPA (aa 16-350), BPB (aa 387-704), BPA+BPB (aa 16-704), BPC (aa 704-1002) and BPB+BPC (aa 350-1002). Full length DDB1a was used as a positive control.

DDB1a = molecular target: T2, DDB1a; assay: yeast two-hybrid (FIG. 4B)
Description: as §1, §4

DDB1b = molecular target: T3, DDB1b; assay: yeast two-hybrid (FIG. 4B)
Description: as §1, §4

full length PYL8 = molecular target: B2; assay: yeast two-hybrid (FIG. 4B)
Description: as §1, §4

YFPN:PYL8 = molecular target: T4, YFPN:PYL8; assay: BiFC in N. benthamiana epidermal cells
Description: To confirm that DDA1 and PYL8 interact in planta, we performed bimolecular fluorescence complementation (BiFC) assays. N. benthamiana leaves were coinfiltrated with Agrobacterium tumefaciens cells to express DDA1 and PYL8 fusions with the Nor C-portions of the yellow fluorescent protein (YFP). The infiltrated leaves were analyzed under the confocal fluorescence microscope 3 d after infiltration.
YFPN:PYL8/DDA1:YFPC were co-infiltrated into the abaxial surface of 3-week-old N. benthamiana plants as described (Voinnet et al., 2003). The p19 protein was used to suppress gene silencing. The empty vectors were used as negative controls. Fluorescence was visualized in epidermal cells of leaves after 3 d of infiltration using a Leica sp5 confocal microscope. Nuclei were visualized after submerging the leaves in a DAPI solution (1 μg mL-1 DAPI in 100 mM phosphate buffer, 0.5% Triton X-100).

DET1 [3] = molecular target: T1, DET1; assay: yeast two-hybrid
Description: as §1, §2, §3

B1: no binding [1].

B2: no binding (DET1 [2]); no binding (DDB1a); no binding (DDB1b).

B3: no binding [1]; no binding (full length PYL8).

B4: binds (YFPN:PYL8).

B5: no binding [1].

B6: no binding (DET1 [3]).
